From patent US10556936B2, “Immunogenic proteins and fragments thereof from allergenic mites” (ALK-ABELLÓ A/S, priority 2016, dated 2020)
Marks after values point to notes of the source that are not given here.

How the values were obtained:
Assay type in all cases: cell-based, human
[1] = system: basophils in whole blood from HDM allergic donors; test: Basophil Activation Test (BAT); settings: blood from HDM allergic individuals (n=14)
Experimental: Basophil Activation Test (BAT) was used as a predictive in vitro assay for indication of safety/immediate hypersensitivity reactions. The BAT assay is a widely used diagnostic test that is also used for evaluation of allergenicity of allergen derived components. In short: whole blood from HDM allergic donors was stimulated for 1 h with the proteins, and the increased expression of activation markers on the surface of basophils were measured by flow cytometry. The BAT test was carried out using different concentrations of the proteins and the allergens Der p 2 and Der p 1 was used as controls and tested in the same concentration rates.
(§1) This example relates to the further testing of immunogenicity of the proteins identified in Example 1. Their ability to react with IgE antibodies in HDM allergic individuals, to stimulate in vitro T cell proliferation of HDM allergic individuals and non-allergics, and to stimulate ex vivo cytokine production of HDM allergic individuals and non-allergics. The following tests were used: • Basophil Activation Test (BAT) was used as a predictive in vitro assay for indication of safety/immediate hypersensitivity reactions. BAT test was carried out using blood from HDM allergic individuals (n=14), and by use of different concentrations of test proteins or the major house dust mite allergens (Der p 1, Der f 1, Der p 2 or Der f 2, e.g. a concentration of 1, 10, 100 or 1000 ng/ml. • In vitro T cell reactivity determined in T cell lines obtained from HDM allergic individuals (n=30) and non-allergics (n=8): Determined by establishment of HDM specific T-cell lines according to standard methods. In short, PMBCs from HDM allergic donors were cultured for 3 weeks in the presence of house dust mite allergen extract. The responses to proteins at a concentration of 0.5 ug/ml or 2 ug/ml of the test protein or the major house dust mite allergens (Der p 1, Der f 1, Der p 2 or Der f 2) were assessed by proliferation in a standard 72 h T cell proliferation assay, as described in Henmar H et al., Clin Exp Immunol 2008; 153(3):316-23. […]. • Ex vivo stimulation of PBMC cells obtained from mite allergic patients (n=16) and non-allergics (n=6): Determined by measuring the production of the cytokines; IFN-gamma, IL-9, IL-10, IL-17 and IL-31 following stimulation with test protein in concentration up to 10 ug/ml. Freshly isolated PBMC 5×10^6/ml were cultured with a test protein for 5 days and cell supernatant were harvested and stored at −80° C. Cytokines of the supernatants were measured using ProcartaPlex Multiplex Immunoassays with MAGPIX Multiplex Reader according manufactory protocol.

[2] = system: T cell lines obtained from HDM allergic individuals and non-allergics; test: In vitro T cell proliferation test in T cell lines (Example 3); settings: 0.5 or 2 ug/ml, 72 h; for % responders of in-vitro T cell proliferation test, Allergic: T cell lines from HDM allergic individuals (n=30); for % responders of in-vitro T cell proliferation test, Non-allergics: T cell lines from non-allergics (n=8)
From the text: as §1

[3] = system: PBMC cells obtained from mite allergic patients and non-allergics; test: Ex vivo stimulation of PBMC: cytokine production (IFN-gamma, IL-9, IL-10, IL-17, IL-31)
From the text: as §1

Row | Molecule | # of individuals of 14 with positive BAT test ([1]; 1 ng/ml) | # of individuals of 14 with positive BAT test ([1]; 10 ng/ml) | # of individuals of 14 with positive BAT test ([1]; 100 ng/ml) | # of individuals of 14 with positive BAT test ([1]; 1000 ng/ml) | % responders of in-vitro T cell proliferation test, Allergic [2] | % responders of in-vitro T cell proliferation test, Non-allergics [2] [%] | % HDM allergic individuals with cytokine production in ex-vivo T cell assay IL-5 [3] [%] | % HDM allergic individuals with cytokine production in ex-vivo T cell assay IL-9 [3] [%] | % HDM allergic individuals with cytokine production in ex-vivo T cell assay IL-10 [3] [%] | % HDM allergic individuals with cytokine production in ex-vivo T cell assay IL-13 [3] [%] | % HDM allergic individuals with cytokine production in ex-vivo T cell assay IL-17 [3] [%] | % HDM allergic individuals with cytokine production in ex-vivo T cell assay IL-31 [3] [%] | % HDM allergic individuals with cytokine production in ex-vivo T cell assay INF-g [3] [%] | % non-allergic individuals with cytokine production in ex-vivo T cell assay IL-5 [3] [%] | % non-allergic individuals with cytokine production in ex-vivo T cell assay IL-9 [3] [%] | % non-allergic individuals with cytokine production in ex-vivo T cell assay IL-10 [3] [%] | % non-allergic individuals with cytokine production in ex-vivo T cell assay IL-13 [3] [%] | % non-allergic individuals with cytokine production in ex-vivo T cell assay IL-17 [3] [%] | % non-allergic individuals with cytokine production in ex-vivo T cell assay IL-31 [3] [%] | % non-allergic individuals with cytokine production in ex-vivo T cell assay INF-g [3] [%]
1 | A011: house dust mite protein; SEQ ID NO: 39 (Der f), 40 (Der p), 309 (Blo t) (protein) KSAPEGCFRAAVLDHVHQTDARHLSNTAKIIDLNFKVYEDAAALAKKQGADIIVFPENGLIYSILSREKADEFASDIPDAEVNACTLDSKFVYNRLACLAQKHQMFVVADLIDRKSCEELGINNVSDSCPADKKFLFNTAVLFDRQGKLLGRYHKMHLFGEISMNPPPKPELLVIDTELGRLGMQICFDMIFKTPGYLLAQENKFDTMLFPTWWFDESPMLSSSQYQMAWAFGNNVTLLASNIHRIEVGSRGSGIYVGPHRTLAAALYDDSVERLVLANVPIKPKETDQSACPLDSEIIEVPQQIPIPKSVKYHHQNLNLKDVTLLQLSSNESEVHLCHKGVCCQFEYRLAMKDQPQESWVDRVPLLANMLHYLTPEERYYLLIANRTRPGAYPWSEEFCAVVVCPSSRWNFGKMQKDCSKIGSNQELSSRFVHAKLRGKFSEDTAVYPSAVGSKNQLIYPENKWKFWKVNVPNEPEYFIELGAKDNSESRAMELGALVLYGRNYNRDPRYEQKALPIN | 0 | 0 | 0 | 1 | 64% | 13 | 25 | 6 | 13 | 19 | 6 | 6 | 0 | 0 | 0 | 0 | 0 | 0 | 0 | 17
2 | A010: house dust mite protein; SEQ ID NO: 41 (Der p), 42 (Der f), 308 (Blo t) (protein) DSLKCSSIRNEDRIDCNPDPPISKNVCEQRGCCWKTAGNDLKNLSSKVLPNLNVPYCYYGENYIGYKIEKHSKNLIQLKRNRSSGFARDIENINIEIHELNDKVIRLKFIDANKKRYEVPIPKLNLPSTTSSSSSNSRLYSVELDGSHLIVRRRETNQSIFDINLAYMVYSDQLIHVTSRLPSKYIYGLGEHRAPFRKNTNWKRYTQWTRDQYPVTDKALYGNHPFYLTVEDESPKKSASGVFLFNSNAMDIITQPSPAITFRTIGGILDFFVFFGPKPEDVISQYQNLIGLPAMPPFWSLGYQQCRYGYNNFTNLNTTYTRNRAVGIPMDVQWTDIDAFNSNNDFTYDHKRFKELPDFINNVLHPNGQKFIPMFDCGISSGEPAGSYKPFDSGVELDVFVKNSSNKIFRGKVWNGKSTVWPDFSHPNATEYWMDMFAEYHKTIAFDGAWLDMNEPSNFYNGEEHGCPESEIENPQYVPGMTDDSLTLRHKTLCMTARHYNDQLHYNLHNLYSLSMAMATNAALTKLNKRPFIISRATAPGHGHWAYHWNGDILSDWSSMRWTIPSILNFNMFGIPMVGADICGFGGNTAEELCIRWYQLGAFYSFARNHNDIHSIDQDPAALGESVIRAARSSLQYRYRFLAHLYTLFYHVHKNGGTVLRPMFFEFPHDEHTYEIETQFMWGDSVLIAPILYPNQTQHKIYLPKGTWYNRKVSFESQGQYITMNDSYDDIDYVFVRGGSIIPTQEPHDNTELMKTKDFLLIVALDNQTSYAKGSLYWDSGDSLNPDKTGHYNFYNFDAVNNTLTIQSQWLGYQTTQNINFINILGVPKLPTSFKLNGHVSDPRIIRFNYDEQTNILTVETKLPIYNQDSSSHDRIHYQFEWIME | 0 | 0 | 0 | 1 | 100* % | 14 | 31 | 13 | 38 | 44 | 13 | 6 | 0 | 0 | 0 | 0 | 0 | 0 | 0 | 0
3 | A009: house dust mite protein; SEQ ID NO: 43 (Der f), 44 (Der p), 307 (Blo t) (protein) VVIKVENLPEQCDYTQCPKWSKDDINVHLVAHTHDDVGWLKTVEQYYYGLKNDIQRAGVQYILDTMIEELIRNKDRRFIYVEIAFFWKWWQEQNEEQRMIVKELVRTGQLEFINGGWSMPDEAATHYNSLIDQSTWGLRQLNDTFGRCGHPKVTWQIDPFGHSKEMANLYAQMGYDALFFARQDYQDRENRMSNRTLEHVWQGSDDLGEIGDIFTGMMFSGYGPIEFNWDITNGPEDAVVDNPESEEYNVPDKIRRFVEKAKYFGQFYATNHFMFPMGTDFQYTDAHTWFKNLDKLINAVNKAGKGVRAFYSTPSCYAHALYEQNRTWTTKTDDFFPYASDEHAYWTGYFTSRPAIKRMERIGNNLLQACKQLDVLADNNGRFEMNLTKMREAMGVMQHHDAVTGTEKQHVAFNYAKMLDSAMLQCRHIINESYKKLLPKSSTSEHEFCPYLNISSCPTTEMGESRIIYLYNPLGHRLINHTVRLPIKNGYYYRIQDQNNQSVPSVLVPIPEFVQKIPGRKSVATKELVFRVPVIEPLGITTMYMYVDKNEQPNSAIEIKGENPDDNDDKSKWLVLTKNLIVEFYSNGTISRISIDKLHQSISISNEFRLYHGAGGTGRHSGAYIFRPNEQKTFPVTNKIKSTFFIDRKYHIVQEVHQQFDSSFVGQIIRMDKYNDNVEFDFVVGPIPVNDQIGKEIIASYKTDLENDETFYTDANGRQMLRRRWNYRPSWKYNVQEPISGNYYPVNSRIAIRDEKQSLQMTIMTDRSQGGSLSPEQINGSIDIMIHRRLLHDDYFGVGEALNEPGVDGHGLVIRGKHLLLLNSIKQSASEHRPLAQQMFMEPIISFTSIESNKQAEKQSNQYIGLNNDLPSNVHLLTLEQWHSKRYLLRLEHFYQSNEDTELSKPVKLSLRHLFKSFEIIAVEELTLGANQPISSLKNRLHYRYNRPLEQRQQQQSSLLLDDPKIEGENFDIHLSPMQIRTFLIDIKRN | 0 | 0 | 0 | 3 | 36% | 63 | 0 | 0 | 94 | 6 | 19 | 0 | 19 | 0 | 0 | 100 | 0 | 33 | 0 | 50
